Drawing on article PMC9170159 (2022), this text covers Kd for one molecule.

The target in the assay is SARS-CoV-2 spike receptor-binding domain (RBD), Wuhan-Hu-1, His-tagged (SARS-CoV-2 (Wuhan-Hu-1), UniProt P0DTC2 319-541). Kind of assay: BLI. (BLI is a label-free optical method that tracks binding on a fibre tip over time.)

B1: NCI-CoV-1B5 VHH-hFc fusion protein (Fc fusion)
chain: DVQLVESGGGSVQAGGSLRLSCTGSRYTYSTYCMGWFRQAPGKEEEAVAIINSGGGEPYYGDSVKGRFTISQDRAKNTVYLQMDGLQPDDTAIYYCVAADSHNSRCYLGRSYVNYWGQGTQVTVSS
By Kd is commonly meant the constant that tells how readily two partners part at equilibrium. Read a high Kd as weaker binding. In turn, B1 had a Kd of 0.1 nM. This lies in the sub-nanomolar range.
